For this test, the target named is GAL4-CREBΔLZ fusion protein. Kind of test: cell-based or functional assay.

A value given as a limit tells only on which side of the number the result lay.

Substance “transcriptional coactivator CBP (CREB-binding protein)” displayed a transactivation of the pG5CAT reporter after caffeine in HEK293 cells of less than 45 fold.

Values taken from EP1142907A1.
